System: peptide library, one residue held at a place counted from the S/T acceptor
Test: relative phosphorylation of the sub-library (ratio to the mean residue at this position); higher = residue favoured
How it was run: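 Relative sub-library phosphorylation is a ratio to the mean residue at the same position. Purified recombinant kinases were incubated under kinase-specific conditions with biotinylated degenerate peptide sub-libraries, each fixing one residue at one position around a central Ser/Thr, using 50 μM peptide and 50 μM ATP spiked with γ-32P-ATP for 90 min. Spots captured on streptavidin membranes were phosphorimaged and quantified by densitometry.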

Sequence of VRK1, construct: Full length, human (Q99986 whole entry, looked up): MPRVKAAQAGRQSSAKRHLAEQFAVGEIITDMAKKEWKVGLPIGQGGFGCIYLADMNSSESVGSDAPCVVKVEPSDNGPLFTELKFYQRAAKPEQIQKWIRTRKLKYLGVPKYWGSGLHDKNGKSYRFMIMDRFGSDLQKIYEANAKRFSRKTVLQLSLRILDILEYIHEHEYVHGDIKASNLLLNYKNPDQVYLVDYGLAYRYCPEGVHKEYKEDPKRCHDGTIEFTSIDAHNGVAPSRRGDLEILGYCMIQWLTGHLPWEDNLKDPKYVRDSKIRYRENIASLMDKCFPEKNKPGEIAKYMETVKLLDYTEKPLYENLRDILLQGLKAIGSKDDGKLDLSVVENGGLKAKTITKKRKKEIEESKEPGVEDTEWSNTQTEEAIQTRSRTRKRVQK

RPS6KA5, construct: Full length, human (from UniProt O75582)
relative phosphorylation
Settings | at +1 | at +2 | at +3 | at +4 | at -1 | at -2 | at -3 | at -4 | at -5
A fixed | 0.772 | 0.9 | 0.834 | 0.825 | 0.783 | 0.787 | 0.718 | 0.981 | 1.04
D fixed | 0.723 | 2.19 | 1.3 | 1.63 | 0.877 | 0.316 | 0.294 | 0.639 | 0.65
E fixed | 0.84 | 1.43 | 1.27 | 1.62 | 0.544 | 0.306 | 0.314 | 0.757 | 0.597
F fixed | 1.44 | 0.986 | 1.12 | 0.863 | 0.767 | 0.4 | 0.352 | 0.778 | 0.91
G fixed | 0.633 | 0.826 | 0.988 | 1 | 0.855 | 0.675 | 0.499 | 1.31 | 1.18
H fixed | 1.04 | 1.59 | 1.35 | 1.23 | 1.16 | 1.06 | 1.18 | 1.18 | 1.03
I fixed | 1.48 | 0.676 | 0.738 | 0.713 | 0.435 | 0.272 | 0.286 | 0.694 | 0.779
K fixed | 0.616 | 0.436 | 0.674 | 0.588 | 1.57 | 1.8 | 1.18 | 1.34 | 1.2
L fixed | 1.32 | 0.95 | 1.09 | 0.777 | 1.07 | 0.444 | 0.293 | 0.807 | 1.03
M fixed | 1.49 | 0.781 | 0.981 | 0.788 | 1.04 | 0.445 | 0.39 | 1.07 | 0.962
N fixed | 0.976 | 1.27 | 0.92 | 1.2 | 1.42 | 0.693 | 0.51 | 0.909 | 0.81
P fixed | 0.292 | 0.581 | 0.98 | 1.5 | 1.63 | 0.367 | 0.588 | 1.1 | 0.923
Q fixed | 1.19 | 0.734 | 0.989 | 1.12 | 1.15 | 0.843 | 0.666 | 0.915 | 0.774
R fixed | 0.539 | 0.52 | 0.574 | 0.551 | 1.5 | 7.44 | 8.25 | 2.04 | 2.26
V fixed | 1.21 | 0.81 | 0.714 | 0.721 | 0.466 | 0.318 | 0.282 | 0.663 | 0.775
W fixed | 1.21 | 1.03 | 1.33 | 0.959 | 0.743 | 0.425 | 0.709 | 0.86 | 1.2
Y fixed | 1.25 | 1.28 | 1.16 | 0.912 | 1 | 0.4 | 0.486 | 0.952 | 0.871
pThr fixed | 1.64 | 1.88 | 1.62 | 2.88 | 0.451 | 0.325 | 0.406 | 0.697 | 0.68
pTyr fixed | 1.68 | 1.25 | 1.53 | 1.57 | 0.898 | 0.392 | 0.539 | 0.698 | 0.747

SRPK3, construct: Full length, human (from UniProt Q9UPE1)
relative phosphorylation
Settings | at +1 | at +2 | at +3 | at +4 | at -1 | at -2 | at -3 | at -4 | at -5
A fixed | 0.905 | 1.14 | 0.591 | 0.865 | 1.08 | 1.46 | 0.594 | 0.904 | 0.946
D fixed | 0.388 | 1.38 | 0.427 | 0.767 | 0.598 | 3.18 | 0.543 | 0.699 | 0.69
E fixed | 0.501 | 1.15 | 0.377 | 0.67 | 0.731 | 1.53 | 0.451 | 0.818 | 0.718
F fixed | 0.56 | 0.736 | 0.505 | 0.848 | 0.727 | 0.782 | 0.389 | 0.825 | 1.1
G fixed | 0.767 | 0.962 | 0.719 | 1.03 | 1.05 | 0.997 | 0.429 | 0.929 | 1.05
H fixed | 0.649 | 1.54 | 0.577 | 0.999 | 1.3 | 0.804 | 0.444 | 0.944 | 1.09
I fixed | 0.877 | 0.777 | 0.413 | 0.739 | 0.696 | 0.471 | 0.351 | 0.865 | 0.92
K fixed | 0.963 | 1.08 | 1.06 | 1.33 | 1.34 | 0.908 | 0.724 | 1.36 | 1.33
L fixed | 1.09 | 0.601 | 0.41 | 0.846 | 0.924 | 0.551 | 0.346 | 0.791 | 0.785
M fixed | 1.01 | 0.796 | 0.467 | 0.899 | 1.02 | 0.666 | 0.403 | 0.859 | 0.906
N fixed | 0.674 | 1.31 | 0.592 | 1.04 | 0.833 | 0.938 | 0.417 | 0.83 | 0.861
P fixed | 3.97 | 0.922 | 1.39 | 1.02 | 1.58 | 0.762 | 0.387 | 0.99 | 0.74
Q fixed | 0.926 | 0.905 | 0.635 | 1.07 | 1.07 | 0.729 | 0.568 | 0.952 | 0.777
R fixed | 1.48 | 1.35 | 7.34 | 2.07 | 1.76 | 1.31 | 9.8 | 2.63 | 2.11
V fixed | 1.13 | 0.909 | 0.456 | 0.745 | 0.898 | 0.547 | 0.34 | 0.852 | 0.897
W fixed | 0.574 | 0.701 | 0.541 | 1.18 | 0.579 | 0.638 | 0.39 | 0.881 | 0.977
Y fixed | 0.537 | 0.734 | 0.496 | 0.876 | 0.818 | 0.723 | 0.429 | 0.867 | 1.1
pThr fixed | 0.601 | 1.02 | 0.572 | 0.874 | 0.69 | 1.01 | 0.644 | 1.13 | 0.863
pTyr fixed | 0.746 | 0.876 | 0.702 | 0.924 | 1.38 | 1.79 | 1.29 | 2.21 | 1.15

VRK1, construct: Full length, human (from UniProt Q99986)
relative phosphorylation
Settings | at +1 | at +2 | at +3 | at +4 | at -1 | at -2 | at -3 | at -4 | at -5
A fixed | 0.79 | 0.924 | 1.23 | 0.978 | 0.758 | 1.02 | 1.09 | 1.03 | 1.08
D fixed | 0.363 | 0.406 | 0.525 | 0.96 | 0.661 | 0.802 | 0.824 | 0.886 | 0.865
E fixed | 0.548 | 0.393 | 0.461 | 0.739 | 0.608 | 0.645 | 0.81 | 0.927 | 0.837
F fixed | 0.972 | 0.746 | 0.877 | 1.01 | 1.04 | 0.8 | 0.902 | 1.02 | 1.01
G fixed | 0.532 | 0.549 | 1.7 | 1.31 | 0.648 | 2.31 | 1.45 | 1.34 | 1.34
H fixed | 0.951 | 0.83 | 1.79 | 1.03 | 1.17 | 1.21 | 1.15 | 1.15 | 1.01
I fixed | 0.921 | 1.63 | 0.573 | 0.884 | 1.31 | 0.622 | 0.772 | 0.859 | 0.822
K fixed | 1.4 | 1.45 | 0.815 | 0.87 | 0.984 | 0.759 | 1.02 | 0.865 | 0.88
L fixed | 0.642 | 1.22 | 0.637 | 0.985 | 1.33 | 0.764 | 0.745 | 0.796 | 0.646
M fixed | 1.11 | 1.67 | 0.865 | 1.06 | 1.06 | 0.946 | 0.862 | 0.916 | 0.835
N fixed | 0.724 | 0.64 | 1.65 | 0.997 | 0.843 | 1.38 | 0.982 | 1.06 | 0.919
P fixed | 0.305 | 0.423 | 0.456 | 0.688 | 0.738 | 1.25 | 1.28 | 1.02 | 1.21
Q fixed | 1.4 | 1.34 | 0.988 | 0.952 | 0.977 | 1.19 | 1.03 | 0.962 | 1.01
R fixed | 2.6 | 1.2 | 1.22 | 1.33 | 1.03 | 1.01 | 1.3 | 0.978 | 1.23
V fixed | 1.39 | 2.09 | 0.723 | 0.75 | 1.53 | 0.616 | 0.848 | 0.97 | 1.02
W fixed | 1.15 | 0.695 | 1.2 | 1.32 | 1.02 | 0.815 | 0.931 | 1.14 | 1.13
Y fixed | 1.19 | 0.795 | 1.29 | 1.14 | 1.3 | 0.856 | 0.999 | 1.07 | 1.16
pThr fixed | 0.771 | 0.821 | 0.698 | 0.728 | 0.751 | 0.781 | 0.938 | 0.862 | 0.958
pTyr fixed | 0.752 | 0.601 | 0.942 | 1.37 | 1.03 | 0.723 | 1 | 0.967 | 1.05

— the supplement of paper PMC9876800
